From patent US20110177998A1 (COMPUGEN, published 2011)
Positions of bridges follow the written chain, without caps; N, C: chain ends. Chains are numbered I, II in the order given. No end group written: not given here.

T1: LGR7 (RXFP1) (human, UniProt Q9HBX9 1-757)
T1 sequence (looked up): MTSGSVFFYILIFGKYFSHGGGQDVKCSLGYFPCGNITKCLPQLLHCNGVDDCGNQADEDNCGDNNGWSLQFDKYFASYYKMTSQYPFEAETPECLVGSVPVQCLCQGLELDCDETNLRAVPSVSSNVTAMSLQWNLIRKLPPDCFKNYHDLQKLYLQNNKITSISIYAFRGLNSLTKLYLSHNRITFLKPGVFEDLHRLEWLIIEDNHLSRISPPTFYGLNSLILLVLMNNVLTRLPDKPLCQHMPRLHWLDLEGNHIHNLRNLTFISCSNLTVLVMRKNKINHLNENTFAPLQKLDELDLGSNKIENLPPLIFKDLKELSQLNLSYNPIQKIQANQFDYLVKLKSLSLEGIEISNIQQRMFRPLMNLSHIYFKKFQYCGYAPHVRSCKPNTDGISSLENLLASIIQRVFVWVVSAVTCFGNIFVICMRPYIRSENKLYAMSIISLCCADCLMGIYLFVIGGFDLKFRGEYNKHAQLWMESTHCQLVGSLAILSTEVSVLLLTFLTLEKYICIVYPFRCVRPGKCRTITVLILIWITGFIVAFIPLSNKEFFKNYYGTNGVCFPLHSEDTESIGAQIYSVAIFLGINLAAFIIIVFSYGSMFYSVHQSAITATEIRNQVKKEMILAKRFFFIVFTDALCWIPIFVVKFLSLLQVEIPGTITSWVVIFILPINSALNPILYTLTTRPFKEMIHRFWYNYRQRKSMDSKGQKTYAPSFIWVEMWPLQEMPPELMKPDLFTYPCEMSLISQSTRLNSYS

B1: H2 Relaxin (ligand)
chain 1: QLYSALANKCCHVGCTKRSLARFC
chain 2: DSWMEEVIKLCGRELVRAQIAICGMSTWS
modifications: disulfide I:10-I:15, I:11-II:11, I:24-II:23; not fully specified (some residues); ends not checked
B2: Peptide P59C13V-Amide (amide) (peptide)
peptide: GQKGQVGPPGAAVRRAYAAFSV-NH2
notes: Synthetic peptide, the C-terminally amidated form of P59C13V; also called P59-Amide; P59 Amide

What was measured:
[1] = target: T1, LGR7 (RXFP1); assay: cell-based or functional assay
[2] = target: T2, LGR8 (RXFP2) (human, UniProt Q8WXD0 1-754); assay: Competition binding against Europium-INSL3 on HEK-293T cells expressing LGR8
T2 construct: whole, on cells; also called RXFP2_HUMAN
T2 sequence (Q8WXD0 whole entry): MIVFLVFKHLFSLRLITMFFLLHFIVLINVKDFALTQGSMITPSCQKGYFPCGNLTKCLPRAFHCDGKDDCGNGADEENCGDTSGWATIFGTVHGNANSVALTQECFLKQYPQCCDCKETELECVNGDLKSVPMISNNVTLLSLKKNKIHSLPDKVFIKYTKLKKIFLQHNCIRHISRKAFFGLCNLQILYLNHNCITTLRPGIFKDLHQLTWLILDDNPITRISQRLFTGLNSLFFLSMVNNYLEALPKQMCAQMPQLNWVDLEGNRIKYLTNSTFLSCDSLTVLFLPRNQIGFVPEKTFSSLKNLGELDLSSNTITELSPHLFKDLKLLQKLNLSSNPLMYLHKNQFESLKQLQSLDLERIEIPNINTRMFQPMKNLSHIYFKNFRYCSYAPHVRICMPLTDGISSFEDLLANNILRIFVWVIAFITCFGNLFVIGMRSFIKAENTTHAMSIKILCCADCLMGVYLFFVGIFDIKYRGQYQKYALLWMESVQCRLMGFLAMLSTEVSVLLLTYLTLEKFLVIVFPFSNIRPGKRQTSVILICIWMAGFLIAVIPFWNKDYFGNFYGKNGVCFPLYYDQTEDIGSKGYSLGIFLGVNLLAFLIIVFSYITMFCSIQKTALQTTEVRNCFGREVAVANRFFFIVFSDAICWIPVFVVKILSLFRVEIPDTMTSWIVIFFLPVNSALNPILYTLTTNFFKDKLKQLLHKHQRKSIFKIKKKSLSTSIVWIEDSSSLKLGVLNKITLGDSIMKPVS

[3] = target: T2, LGR8 (RXFP2); assay: cell-based or functional assay

Row | Binder | EC50, cell impedance dose response (ACEA RT-CES), transfected CHO-K1 cells [1] [nM] | binding result [2] | pCRE-beta-gal reporter after 5 uM forskolin, CHO-K1 cells, % of Forskolin activity [3] | pCRE-beta-gal reporter after 5 uM forskolin, CHO-K1 cells, % of Forskolin activity [1]
1 | GQKGQVGPPGAAVRRAYAAFSVGRRAYAAFSV (Free acid C-terminus) [Peptide P74C13V (free acid)] | ~300 | binds |  | 
2 | B1 | ~100 |  |  | 
3 | AYAAFSV-NH2 [Peptide P59-S-Amide (Amide)] |  |  | ~2 fold of Forskolin | ~2 fold of Forskolin
4 | B2 |  | binds |  | 
